The experiment concerns the target immobilized trimeric proteins. Briefly: SPR; reverse set-up: JR-FL gp120 (900 RU), JR-FL FD gp145 (1400 RU), SF162 FD gp145 (900 RU) or Soc-V1V2JR-FL amine-coupled to CM5 chips; Siglec-1 injected in 10 mM HEPES, 150 mM NaCl pH 7.4, 30 µl/min; some runs with 50 nM Siglec-1 and lactose, 6'-sialyllactose or sialic acid.

Substance “Siglec-1 (recombinant protein used for SPR) (from UniProt Q9BZZ2 20-1709) (receptor)” displayed a fold less affinity than trimeric proteins on immobilized Siglec-1 of 10 to 20 fold.

For the origin of these results see paper PMC4952014.
